What is called IC50 is the concentration needed to halve the response being measured. A high value points to weaker potency.

Experiment [1] concerns the target αvβ5. The experiment can be described thus: ELISA. On the technique in general: An ELISA detects its analyte on a solid surface through an enzyme-linked reagent.
Experiment [2] deals with Vitronectin receptor (human) (UniProt P06756). The experiment in a line: competition, ELISA or liposome assay, vitronectin coated.
Experiment [3] addresses Platelet glycoprotein IIb/IIIa (human) (UniProt P08514). The experiment in a line: cell-based or functional assay.
Experiment [4] has the same target. The experiment can be described thus: ELISA.

Non-standard residues stand in square brackets, D forms with d. No end group written: not given here. *: point of attachment. Pmc = Cc1c(C)c(S(=O)(=O)*)c(C)c2c1OC(C)(C)CC2; 2Nal = N[C@@H](Cc1ccc2ccccc2c1)C(=O)O; Pen = CC(C)(S)[C@H](N)C(=O)O

R(Pmc)G(DY)RGD(Y-OMe)RCR came in with an IC50 in experiment [1] of 10 µM. This lies in the double-digit micromolar range.

(Mpr)NPRGD(Y-OMe)RC-NH2 had an IC50 in experiment [1] of 3 µM.

R(Pmc)GHRGD[2Nal]RCR: in experiment [1], the IC50 was determined as 10 µM.

Take “G[Pen]GRGDRPCR (cysteine pairing not given here)”: the IC50 in experiment [2] is 0.01 µM.

“R(Pmc)GHRGD(O-Me-Tyr)RCR (Table I, row r54) (peptide)” yielded an IC50, ADP-Stimulated Aggregation in experiment [3] of 0.44 µM.

R(Pmc)GYRGD(Y-OMe)RCR came in with a half-inhibitory concentration (IC50) in experiment [1] of 8.8 µM.

Regarding Ac-CNPRGD(Y-OMe)LC-NH2, in experiment [1], the IC50 turned out to be 7.14 µM. This IC50 and that of the substance before are within 1.5-fold of each other.

Ac-(Pmc)NPRGD(Y-OMe)RC-NH2 showed an IC50 in experiment [1] of 2.34 µM. Against the preceding substance, the IC50 is about 3.1-fold lower.

Turning to “analogue 18 (Asp for Gly at position -2 of R(Pmc)GHRGD(Y-OMe)RCR) (peptide)”, the fold decrease in potency relative to analogue 11 in experiment [3] is 4 fold.

In experiment [3], R2(Pen)GRGDTPCA (peptide) yielded an IC50, ADP-Stimulated Aggregation of 8.2 µM and an IC50, Thrombin Stimulated Aggregation of 2.7 µM.

In the case of Ac(dPen)IPRGD(O-Me-Tyr)RC-NH2, the IC50 in experiment [4] amounted to 0.002 µM.

Turning to R(Pmc)GHRGD(p-Cl-F)RCR, the IC50 in experiment [1] turned out to be 15.3 µM.

Source of the values: patent US6521594.
